{
  "source": "IntAct's records for PubMed 22885598",
  "parents": {"B1": {"name": "Autophagy-related protein 13 (Saccharomyces cerevisiae), Q06628 (parent)", "chain": "MVAEEDIEKQVLQLIDSFFLKTTLLICSTESSRYQSSTENIFLFDDTWFEDHSELVSELPEIISKWSHYDGRKELPPLVVETYLDLRQLNSSHLVRLKDHEGHLWNVCKGTKKQEIVMERWLIELDNSSPTFKSYSEDETDVNELSKQLVLLFRYLLTLIQLLPTTELYQLLIKSYNGPQNEGSSNPITSTGPLVSIRTCVLDGSKPILSKGRIGLSKPIINTYSNALNESNLPAHLDQKKITPVWTKFGLLRVSVSYRRDWKFEINNTNDELFSARHASVSHNSQGPQNQPEQEGQSDQDIGKRQPQFQQQQQPQQQQQQQQQQQRQHQVQTQQQRQIPDRRSLSLSPCTRANSFEPQSWQKKVYPISRPVQPFKVGSIGSQSASRNPSNSSFFNQPPVHRPSMSSNYGPQMNIEGTSVGSTSKYSSSFGNIRRHSSVKTTENAEKVSKAVKSPLQPQESQEDLMDFVKLLEEKPDLTIKKTSGNNPPNINISDSLIRYQNLKPSNDLLSEDLSVSLSMDPNHTYHRGRSDSHSPLPSISPSMHYGSLNSRMSQGANASHLIARGGGNSSTSALNSRRNSLDKSSNKQGMSGLPPIFGGESTSYHHDNKIQKYNQLGVEEDDDDENDRLLNQMGNSATKFKSSISPRSIDSISSSFIKSRIPIRQPYHYSQPTTAPFQAQAKFHKPANKLIDNGNRSNSNNNNHNGNDAVGVMHNDEDDQDDDLVFFMSDMNLSKEG", "partner": "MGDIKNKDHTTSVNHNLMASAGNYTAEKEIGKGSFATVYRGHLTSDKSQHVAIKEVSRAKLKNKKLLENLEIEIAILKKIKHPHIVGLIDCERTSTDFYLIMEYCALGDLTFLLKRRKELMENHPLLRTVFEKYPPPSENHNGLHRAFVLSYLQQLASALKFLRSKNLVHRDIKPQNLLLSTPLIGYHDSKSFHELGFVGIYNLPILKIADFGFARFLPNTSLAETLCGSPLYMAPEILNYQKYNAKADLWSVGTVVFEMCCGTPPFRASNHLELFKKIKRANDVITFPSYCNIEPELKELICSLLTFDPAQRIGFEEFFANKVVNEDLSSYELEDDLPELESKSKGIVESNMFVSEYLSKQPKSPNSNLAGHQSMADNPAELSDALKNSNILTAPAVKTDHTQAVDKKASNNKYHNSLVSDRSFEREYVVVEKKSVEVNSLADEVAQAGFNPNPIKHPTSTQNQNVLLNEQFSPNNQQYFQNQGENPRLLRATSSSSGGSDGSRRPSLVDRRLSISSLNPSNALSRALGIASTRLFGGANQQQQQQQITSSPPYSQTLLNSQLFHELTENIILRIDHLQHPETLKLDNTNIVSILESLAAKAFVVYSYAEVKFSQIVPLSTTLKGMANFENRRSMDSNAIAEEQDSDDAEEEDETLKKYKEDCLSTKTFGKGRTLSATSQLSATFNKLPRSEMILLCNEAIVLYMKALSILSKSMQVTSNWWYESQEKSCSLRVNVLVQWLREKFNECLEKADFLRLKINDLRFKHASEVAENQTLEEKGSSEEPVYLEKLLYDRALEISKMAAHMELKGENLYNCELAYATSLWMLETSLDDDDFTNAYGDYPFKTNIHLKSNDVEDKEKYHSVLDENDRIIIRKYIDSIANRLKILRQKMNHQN"}},
  "data": [
    {"variants_of": "B1", "conditions": "with atg1_yeast ATG1, P53104", "values": [
      {"variant": "V469A", "effect of a mutation on the interaction": "disrupting interaction"},
      {"variant": "F468A", "effect of a mutation on the interaction": "disrupting interaction"}
    ]},
    {"variants_of": "B1", "conditions": "with atg1_yeast ATG1, P53104", "remark": "another data set of the same source", "values": [
      {"variant": "F468A", "effect of a mutation on the interaction": "decreasing interaction"}
    ]}
  ]
}
